Measurements: patent US20070071744A1

Experiments:
Assay in all cases: PepSpot peptide array
peptide 117 (human) = target: T1, peptide 117 (human)
T1 sequence (peptide, N-terminus acetylated): SFTNKVFTTETSR

peptide 7 (human) = target: T2, peptide 7 (human)
T2 sequence (peptide, N-terminus acetylated): LCLGRVPAQSGPL

peptide 118 (human) = target: T3, peptide 118 (human)
T3 sequence (peptide, N-terminus acetylated): TNKVFTTETSRSI

- LU (Light Units) (peptide 117 (human)): 472 LU
- LU (Light Units) (peptide 7 (human)): 292 LU
- LU (Light Units) (peptide 118 (human)): 336 LU
B1: monoclonal antibody hGP 5C4 (antibody, V domains shown)
VH: EVKLQESGGGLVQPGRSLKLSCTASGFTFSDYFMSWVRQAPTRGLEWVASISSGGASAYWRDSVKGRFTISRDNAKSALYLQMDSLRSEDTATYFCARGELDFDYWGQGVMVAVSS
VL: ADPNSTLLSASVGDRVTLNCTASQNVYKNLAWYQQKLGEAPRLLLYSANSQTGIPSRFSGSGSGPDFTLTISSLQPEDVASYFCQQYYSGNTFGAGTKLELKR
